These results are taken from paper PMC12217166, “Conformational dynamics and membrane insertion mechanism of B4GALNT1 in ganglioside synthesis” (Nature Communications, 2025).

The target of data set [1] is His10-ΔN46-B4GALNT1 (human B4GALNT1 lumenal domain construct ΔN46) (human) (UniProt Q00973). As to the kind of experiment: non-reducing SDS-PAGE; purified protein in SDS loading dye without or with 50 mM DTT, heated 5 min at 95 °C, NuPAGE 4-12% Bis-Tris gel, Coomassie stain; dimer seen without reducing agent.
Data set [2] concerns the molecule itself. The data set is described as above.

In data set [1], “His10-ΔN46-B4GALNT1 (human B4GALNT1 lumenal domain construct ΔN46) (from UniProt Q00973 47-533) (domain or fragment)” displayed a stoichiometry N of 2.

B1: B4GALNT1 lumenal domain construct ΔN27 (entire lumenal domain, human) (domain or fragment)
chain: HHHHHHHHHHGTRDAPGLRLPLAPWAPPQSPRRPELPDLAPEPRYAHIPVRIKEQVVGLLAWNNCSCESSGGGLPLPFQKQVRAIDLTKAFDPAELRAASATREQEFQAFLSRSQSPADQLLIAPANSPLQYPLQGVEVQPLRSILVPGLSLQAASGQEVYQVNLTASLGTWDVAGEVTGVTLTGEGQADLTLVSPGLDQLNRQLQLVTYSSRSYQTNTADTVRFSTEGHEAAFTIRIRHPPNPRLYPPGSLPQGAQYNISALVTIATKTFLRYDRLRALITSIRRFYPTVTVVIADDSDKPERVSGPYVEHYLMPFGKGWFAGRNLAVSQVTTKYVLWVDDDFVFTARTRLERLVDVLERTPLDLVGGAVREISGFATTYRQLLSVEPGAPGLGNCLRQRRGFHHELVGFPGCVVTDGVVNFFLARTDKVREVGFDPRLSRVAHLEFFLDGLGSLRVGSCSDVVVDHASKLKLPWTSRDAGAETYARYRYPGSLDESQMAKHRLLFFKHRLQCMTSQ
modifications: N-linked glycosylation (3 predicted sites, positions not given)
With B1, in data set [2], the “stoichiometry N” value worked out at 2.
